Patent US11760780B2, “Targeting dimerization of BAX to modulate BAX activity” (ALBERT EINSTEIN COLLEGE OF MEDICINE, priority 2014, dated 2023)
Positions of bridges follow the written chain, without caps; N, C: chain ends. Non-standard residues stand in square brackets, D forms with d. S5 = C=CCCC[C@](C)(N)C(=O)O

Tests used:
Format in all cases: biochemical
BAX [1] = target: T1, BAX (Homo sapiens, UniProt Q07812, P168G); assay: Liposomal permeabilization assay (ANTS/DPX release); conditions: purified BAX P168G dimer, increasing doses, maximum release at 90 min, FIG. 14B
T1 construct: made in house; host or cells: E. coli BL21 (DE3) codon+
Procedure: (§1) Liposomes were composed of the following molar percentages of lipids (Avanti Polar Lipids): phosphatidylcholine, 48%; phosphatidylethanolamine, 28%; phosphatidylinositol, 10%; dioleoyl phosphatidylserine, 10%; and tetraoleoyl cardiolipin, 4% and were loaded with ANTS/DPX (Molecular Probe) upon extrusion. BAX (400 nM) was combined with BIM SAHBA2 at the indicated concentrations in 96-well format (Corning) and then liposomes were added (10 μl from 50 mM total lipid stock) in assay buffer (10 mM HEPES, pH 7, 200 mM KCl, 5 mM MgCl2, and 0.2 mM EDTA) to a final volume of 100 μl. ANTS/DPX release was quantified based on the increase in fluorescence intensity that occurs when the ANTS fluorophore is separated from the DPX quencher upon release from the liposomes into the supernatant. Fluorescence (λex=355 nm and λem=520 nm) was measured over time at 30° C. using a Tecan Infinite M1000 plate reader. The percentage release of ANTS/DPX at 90 min was calculated as percentage release=((F−F0)/(F100−F0))×100, where F0 and F100 are baseline and maximal fluorescence, respectively. 1% Triton treatment is used to determine the maximum amount of liposomal release per assay, and this value sets the 100% value.

BAX [2] = target: T2, BAX (Homo sapiens, UniProt Q07812); assay: as above
T2 construct: made in house; host or cells: E. coli BL21 (DE3) codon+
Procedure: as §1

BAX 4MA dimer = target: T3, BAX 4MA dimer (Homo sapiens, UniProt Q07812, C126S/C62S/I136C/V121C); assay: BAX dimer dissociation / oligomerization by size exclusion chromatography; conditions: FIG. 14A
T3 construct: made in house; host or cells: E. coli BL21 (DE3) codon+
Procedure: Superdex 75 10/300 GL and 200 10/300 GL (GE Healthcare) columns were used for size exclusion chromatography of recombinant proteins and cell extracts. Recombinant protein was injected in columns equilibrated with a buffer containing 20 mM HEPES pH 7.2, 150 mM KCl, 1 mM DTT. 1 mg of cytosolic or membrane extracts was applied to a Superdex 200 10/300 GL equilibrated in buffer containing 10 mM Tris, pH 7.5, 1 mM EGTA, 200 mM Sucrose and Complete Protease Inhibitors. Fractions of 500 μl were collected, and 30 μl of each fraction was analyzed by SDS-PAGE and immunoblotting. All operations were run at 4° C. Gel filtration molecular weight markers (GE Healthcare) were also subjected to the columns to obtain a standard curve for the estimation of the molecular weight of the proteins.
BAX wild type and mutants were concentrated to ˜0.5 mM in BAX buffer (10 mM HEPES pH 7, 150 mM KCl, 1 mM DTT) and incubated at 20° C. for 1-3 days before diluting to a total volume of 250 μl and loaded onto a Superdex 75 HR 10/30 size exclusion column (GE Healthcare). These conditions allow a controlled dimerization process than aggregation due to BAX activation. Separation of monomeric and dimeric BAX was achieved using a flow rate of 0.5 ml/min at 4° C. The chromatogram traces show the monomeric and dimeric peaks at ˜11.8 and ˜10.4 ml, respectively. […]

T2 sequence (Q07812 whole entry): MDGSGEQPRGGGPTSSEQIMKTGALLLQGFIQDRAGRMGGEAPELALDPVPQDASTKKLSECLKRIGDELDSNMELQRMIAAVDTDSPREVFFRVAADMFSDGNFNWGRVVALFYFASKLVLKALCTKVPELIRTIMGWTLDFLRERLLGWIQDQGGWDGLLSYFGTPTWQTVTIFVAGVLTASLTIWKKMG
T3 sequence (Q07812 whole entry C62S/V121C/C126S/I136C): as the sequence (Q07812 whole entry) above, with C62S, V121C, C126S, I136C counted along it
T1 sequence (Q07812 whole entry P168G): as the sequence (Q07812 whole entry) above, with P168G counted along it

N-acetylated^145EIWIAQELRS5IGDS5FNAYYA^164-CONH2 (Ac-EIWIAQELR[S5]IGD[S5]FNAYYA-NH2; staple 10-14; SMILES CC[C@H](C)[C@H](NC(=O)[C@H](Cc1c[nH]c2ccccc12)NC(=O)[C@@H](NC(=O)[C@H](CCC(=O)O)NC(C)=O)[C@@H](C)CC)C(=O)N[C@@H](C)C(=O)N[C@@H](CCC(N)=O)C(=O)N[C@@H](CCC(=O)O)C(=O)N[C@@H](CC(C)C)C(=O)N[C@@H](CCCNC(=N)N)C(=O)N[C@@]1(C)CCCC=CCCC[C@@](C)(C(=O)N[C@@H](Cc2ccccc2)C(=O)N[C@@H](CC(N)=O)C(=O)N[C@@H](C)C(=O)N[C@@H](Cc2ccc(O)cc2)C(=O)N[C@@H](Cc2ccc(O)cc2)C(=O)N[C@@H](C)C(N)=O)NC(=O)[C@H](CC(=O)O)NC(=O)CNC(=O)[C@H]([C@@H](C)CC)NC1=O) [BIM SAHBA2, Hydrocarbon-stapled peptide corresponding to the BH3 domain of BIM]
activation of BAX P168G dimer compared to BAX WT dimer (BAX [1]): more resistant to activation | membrane permeabilization by BAX dimer upon addition of activator (BAX [2]; SEC-isolated BAX dimer, liposomes, FIG. 1D): nearly inactive | membrane permeabilization by BAX monomer upon addition of activator (BAX [2]; SEC-isolated BAX monomer, liposomes, FIG. 1D): activated and induced membrane permeabilization | doses required to activate BAX WT dimer versus dose that fully activates BAX WT monomer (BAX [2]; purified BAX WT dimer, maximum release at 90 min, FIG. 14B): significantly higher | activation of BAX 4MA monomer to induce BAX oligomerization (BAX 4MA dimer; in the presence of reducing agent (DTT)): can also activate BAX 4MA monomer to induce BAX oligomerization | competition and dissociation of BAX 4MA dimer to monomer (BAX 4MA dimer; isolated BAX 4MA dimer, high doses, Superdex 75 SEC): can compete and dissociate the dimer into monomers
